T1: Epl1 (Saccharomyces cerevisiae, UniProt P43572 1-832)
T1 sequence: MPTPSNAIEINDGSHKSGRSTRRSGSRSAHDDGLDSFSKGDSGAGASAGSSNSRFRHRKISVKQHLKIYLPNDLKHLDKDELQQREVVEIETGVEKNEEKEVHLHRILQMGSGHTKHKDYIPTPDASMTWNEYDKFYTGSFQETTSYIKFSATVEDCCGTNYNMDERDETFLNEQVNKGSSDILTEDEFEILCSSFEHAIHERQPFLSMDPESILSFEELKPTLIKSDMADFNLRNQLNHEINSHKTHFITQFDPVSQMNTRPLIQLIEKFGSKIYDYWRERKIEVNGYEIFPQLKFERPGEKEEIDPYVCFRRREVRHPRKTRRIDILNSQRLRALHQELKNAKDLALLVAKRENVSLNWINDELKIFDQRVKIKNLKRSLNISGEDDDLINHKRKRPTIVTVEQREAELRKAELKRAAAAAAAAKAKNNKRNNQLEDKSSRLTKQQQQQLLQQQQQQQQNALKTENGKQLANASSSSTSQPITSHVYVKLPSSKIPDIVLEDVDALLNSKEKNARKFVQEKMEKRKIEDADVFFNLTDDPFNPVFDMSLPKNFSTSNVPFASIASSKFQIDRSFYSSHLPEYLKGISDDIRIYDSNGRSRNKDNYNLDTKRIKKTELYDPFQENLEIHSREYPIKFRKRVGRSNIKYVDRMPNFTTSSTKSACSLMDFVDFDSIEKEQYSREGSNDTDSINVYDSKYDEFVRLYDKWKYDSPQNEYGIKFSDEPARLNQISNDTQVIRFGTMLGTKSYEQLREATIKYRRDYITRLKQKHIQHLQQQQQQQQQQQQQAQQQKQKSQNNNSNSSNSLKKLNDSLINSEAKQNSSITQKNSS


How the values were obtained:
Tra1 = Tra1 (Saccharomyces cerevisiae, UniProt P38811 1-3744); experiment: cross-linking
Sequence of Tra1 (P38811 whole entry): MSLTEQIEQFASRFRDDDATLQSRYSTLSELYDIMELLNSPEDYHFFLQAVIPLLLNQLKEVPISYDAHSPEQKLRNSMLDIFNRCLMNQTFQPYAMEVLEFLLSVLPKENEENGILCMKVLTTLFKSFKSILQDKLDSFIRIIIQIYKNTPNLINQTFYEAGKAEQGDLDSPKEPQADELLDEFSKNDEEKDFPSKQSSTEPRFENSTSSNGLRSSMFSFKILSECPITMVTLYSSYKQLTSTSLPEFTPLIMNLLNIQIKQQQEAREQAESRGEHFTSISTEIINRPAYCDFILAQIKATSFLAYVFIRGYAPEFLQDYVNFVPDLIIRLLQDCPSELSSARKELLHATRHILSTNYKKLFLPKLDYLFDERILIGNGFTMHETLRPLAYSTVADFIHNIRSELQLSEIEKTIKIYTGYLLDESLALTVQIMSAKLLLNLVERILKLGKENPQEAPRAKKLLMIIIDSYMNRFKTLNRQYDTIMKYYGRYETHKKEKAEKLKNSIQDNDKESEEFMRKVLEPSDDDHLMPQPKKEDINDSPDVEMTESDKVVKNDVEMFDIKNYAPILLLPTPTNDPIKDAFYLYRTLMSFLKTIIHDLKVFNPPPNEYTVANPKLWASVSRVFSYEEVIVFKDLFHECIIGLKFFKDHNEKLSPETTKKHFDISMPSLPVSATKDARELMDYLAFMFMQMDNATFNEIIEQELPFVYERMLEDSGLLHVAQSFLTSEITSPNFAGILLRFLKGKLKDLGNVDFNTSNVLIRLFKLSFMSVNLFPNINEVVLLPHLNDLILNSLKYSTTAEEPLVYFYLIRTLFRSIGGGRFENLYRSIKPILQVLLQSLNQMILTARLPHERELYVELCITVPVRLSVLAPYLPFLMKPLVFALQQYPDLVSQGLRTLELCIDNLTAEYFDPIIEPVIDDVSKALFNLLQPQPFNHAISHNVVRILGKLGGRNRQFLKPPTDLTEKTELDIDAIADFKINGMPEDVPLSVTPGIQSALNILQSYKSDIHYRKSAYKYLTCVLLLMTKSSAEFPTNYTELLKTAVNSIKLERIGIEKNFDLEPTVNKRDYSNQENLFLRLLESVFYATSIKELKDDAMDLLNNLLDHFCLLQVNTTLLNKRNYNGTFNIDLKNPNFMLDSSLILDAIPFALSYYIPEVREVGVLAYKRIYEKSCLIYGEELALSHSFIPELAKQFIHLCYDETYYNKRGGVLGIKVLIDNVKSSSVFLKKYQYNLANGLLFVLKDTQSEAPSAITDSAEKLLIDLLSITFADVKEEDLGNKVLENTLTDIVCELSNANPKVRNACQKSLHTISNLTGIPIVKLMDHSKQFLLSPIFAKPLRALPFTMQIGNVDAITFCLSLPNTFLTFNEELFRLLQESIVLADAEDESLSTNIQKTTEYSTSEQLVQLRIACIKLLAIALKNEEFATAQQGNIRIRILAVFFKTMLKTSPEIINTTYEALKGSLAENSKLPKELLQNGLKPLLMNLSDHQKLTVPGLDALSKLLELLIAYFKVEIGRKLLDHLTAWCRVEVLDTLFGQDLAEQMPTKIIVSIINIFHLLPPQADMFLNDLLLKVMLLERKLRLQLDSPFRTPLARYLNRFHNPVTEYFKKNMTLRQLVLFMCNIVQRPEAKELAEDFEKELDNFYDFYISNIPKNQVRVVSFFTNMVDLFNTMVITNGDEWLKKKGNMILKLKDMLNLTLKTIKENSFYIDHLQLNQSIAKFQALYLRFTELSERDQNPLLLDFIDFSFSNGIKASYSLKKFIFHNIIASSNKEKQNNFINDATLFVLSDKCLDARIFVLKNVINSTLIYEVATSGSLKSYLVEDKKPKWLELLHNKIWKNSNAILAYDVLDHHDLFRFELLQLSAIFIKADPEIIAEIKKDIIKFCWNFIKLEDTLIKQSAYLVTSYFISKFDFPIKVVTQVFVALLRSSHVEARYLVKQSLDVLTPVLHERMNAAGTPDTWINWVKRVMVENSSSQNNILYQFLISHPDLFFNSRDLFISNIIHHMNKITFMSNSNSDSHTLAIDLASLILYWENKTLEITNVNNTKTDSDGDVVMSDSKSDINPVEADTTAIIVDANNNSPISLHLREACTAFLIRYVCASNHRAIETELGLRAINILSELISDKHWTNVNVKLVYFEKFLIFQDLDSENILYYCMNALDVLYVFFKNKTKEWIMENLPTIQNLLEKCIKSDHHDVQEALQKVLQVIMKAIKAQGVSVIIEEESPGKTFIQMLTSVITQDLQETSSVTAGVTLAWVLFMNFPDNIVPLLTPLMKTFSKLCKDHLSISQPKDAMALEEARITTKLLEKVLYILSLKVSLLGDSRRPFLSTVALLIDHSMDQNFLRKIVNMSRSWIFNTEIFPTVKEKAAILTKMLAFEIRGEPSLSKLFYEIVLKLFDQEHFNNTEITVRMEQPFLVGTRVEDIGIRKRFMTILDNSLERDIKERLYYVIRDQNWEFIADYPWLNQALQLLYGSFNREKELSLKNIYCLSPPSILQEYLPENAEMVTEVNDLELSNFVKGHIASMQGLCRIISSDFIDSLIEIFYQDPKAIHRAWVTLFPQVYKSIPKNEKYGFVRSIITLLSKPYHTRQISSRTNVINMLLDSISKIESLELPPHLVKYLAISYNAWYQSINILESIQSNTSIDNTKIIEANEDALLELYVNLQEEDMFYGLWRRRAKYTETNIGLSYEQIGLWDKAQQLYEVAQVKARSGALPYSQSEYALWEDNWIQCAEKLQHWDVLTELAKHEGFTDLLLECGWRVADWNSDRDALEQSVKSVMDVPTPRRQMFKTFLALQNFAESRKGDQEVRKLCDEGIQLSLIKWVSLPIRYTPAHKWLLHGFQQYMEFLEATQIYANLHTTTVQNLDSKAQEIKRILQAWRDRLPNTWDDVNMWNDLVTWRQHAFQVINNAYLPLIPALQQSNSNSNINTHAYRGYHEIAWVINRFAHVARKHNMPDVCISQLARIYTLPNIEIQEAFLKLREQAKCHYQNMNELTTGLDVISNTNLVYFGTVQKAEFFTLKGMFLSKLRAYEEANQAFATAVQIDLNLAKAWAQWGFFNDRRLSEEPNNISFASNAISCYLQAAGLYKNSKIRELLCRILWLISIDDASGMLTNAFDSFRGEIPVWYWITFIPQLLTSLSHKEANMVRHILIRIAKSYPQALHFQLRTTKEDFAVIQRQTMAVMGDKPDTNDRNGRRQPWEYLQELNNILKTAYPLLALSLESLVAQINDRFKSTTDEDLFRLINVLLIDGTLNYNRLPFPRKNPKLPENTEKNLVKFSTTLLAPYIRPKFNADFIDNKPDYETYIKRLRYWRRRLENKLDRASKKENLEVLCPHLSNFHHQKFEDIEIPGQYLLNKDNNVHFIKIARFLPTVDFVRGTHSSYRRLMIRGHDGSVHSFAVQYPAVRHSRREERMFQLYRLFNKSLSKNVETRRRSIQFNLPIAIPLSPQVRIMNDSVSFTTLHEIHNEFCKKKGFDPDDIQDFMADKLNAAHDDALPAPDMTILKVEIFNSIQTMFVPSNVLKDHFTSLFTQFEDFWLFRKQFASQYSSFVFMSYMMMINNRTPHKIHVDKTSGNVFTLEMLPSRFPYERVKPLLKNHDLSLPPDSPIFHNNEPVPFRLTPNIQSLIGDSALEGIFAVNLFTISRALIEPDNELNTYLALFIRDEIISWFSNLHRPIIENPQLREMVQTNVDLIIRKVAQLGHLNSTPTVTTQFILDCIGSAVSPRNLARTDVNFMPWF

Epl1 = molecular target: T1, Epl1; experiment: cryo-EM structure

binding result (Tra1) | binding result (Epl1) | Binder
 | binds | Esa1 (enzyme) MSHDGKEEPGIAKKINSVDDIIIKCQCWVQKNDEERLAEILSINTRKAPPKFYVHYVNYNKRLDEWITTDRINLDKEVLYPKLKATDEDNKKQKKKKATNTSETPQDSLQDGVDGFSRENTDVMDLDNLNVQGIKDENISHEDEIKKLRTSGSMTQNPHEVARVRNLNRIIMGKYEIEPWYFSPYPIELTDEDFIYIDDFTLQYFGSKKQYERYRKKCTLRHPPGNEIYRDDYVSFFEIDGRKQRTWCRNLCLLSKLFLDHKTLYYDVDPFLFYCMTRRDELGHHLVGYFSKEKESADGYNVACILTLPQYQRMGYGKLLIEFSYELSKKENKVGSPEKPLSDLGLLSYRAYWSDTLITLLVEHQKEITIDEISSMTSMTTTDILHTAKTLNILRYYKGQHIIFLNEDILDRYNRLKAKKRRTIDPNRLIWKPPVFTASQLRFAW
 | binds | Yng2 (natural protein) MDPSLVLEQTIQDVSNLPSEFRYLLEEIGSNDLKLIEEKKKYEQKESQIHKFIRQQGSIPKHPQEDGLDKEIKESLLKCQSLQREKCVLANTALFLIARHLNKLEKNIALLEEDGVLAPVEEDGDMDSAAEASRESSVVSNSSVKKRRAASSSGSVPPTLKKKKTSRTSKLQNEIDVSSREKSVTPVSPSIEKKIARTKEFKNSRNGKGQNGSPENEEEDKTLYCFCQRVSFGEMVACDGPNCKYEWFHYDCVNLKEPPKGTWYCPECKIEMEKNKLKRKRN

Second part, the binder before the results:

Binder | binding result (Tra1) | binding result (Epl1)
Eaf1 (natural protein) MSSRPSSAVPNSASLSEDQSSDRSKFPKADDLIDERDRKLTELYCVSRLNQLLELTDENKLRKEIDAFLKKNDIRRGIRFDEASLPKLLHTAATPITKKKLKDVNLINVPNQRLSDSKMSRELPENSENVSVKSESHFVPSHDNSIRENMMDSLRPAEKTGGMWNKRPLESTMGGEEERHEKRQKMQSQSLESSNNSEMASLPISPRPPVPNALAHYTYYENIEYPPADPTEVQPAVKFKDPLIKNIMAKEIDTSDHYNENNVDALETVFLLMNDYIPSKIPQALPLAELKYMSQTLPLINLIPRAHKALTTNIINNALNEARITVVGSRIEELRRLGLWSLRQPKRFIDPWKQHNTHQNILLEEAKWMQADFKEGHKYKVAICTAMAQAIKDYWTYGEICCVKRKTLLPGKENKLSDDGRISEKSGRPSDTSRNDSDISIAGKDDIGIIANVDDITEKESAAANDNDENGKNEAGAKSDFDFADGLLSQEGAHDQIISSIDTKLLLKKPSSSSEVVLIQHEVAASSALIETEESKKELAPPFKLSIFVDELNTFEKTLIQDLPLYNGINEERPKKDDSLPFIPISKSVVSLDDNGFYKLLERQLIDEEPSISQLSKRRGMFYGNRRNHYLRPPAVPSLRYLQNRTPTIWLSEDDQELVKNINTYGYNWELISAHMTHRLTYSYLSNIERRTPWQCFERFVQLNERFNFSDLKGPRAHSAQQWLIEAHKFQQRQNRRISPLGVNTESIQRGHRRLRWASMFEAIRKCMKKRENTPRPNPTQPRKPLDCKNMKVPTPAEMSLLKAQRDEALRRDIQLRRTVKNRLQQRQQQSQQAHSSRAQSPIPSNGKSSSNLARNGQASAPRPNQKQYTEQDIIESYSRKLLEQKPDIGPEMALKAAKNYYRTLREQQQQLKQHQIQQQRQQLQEESSHVQQLQQLQPGSQAPPPKSSPSQSSLSNISNINSAPRIKSPTPQEILQRFQKQ | binds | 
Gal4-VP16 fusion protein (other) MKLLSSIEQACDICRLKKLKCSKEKPKCAKCLKNNWECRYSPKTKRSPLTRAHLTEVESRLERLEQLFLLIFPREDLDMILKMDSLQDIKALLTGLFVQDNVNKDAVTDRLASVETDMPLTLRQHRISATSSSEESSNKGQRQLTVSAPPTDVSLGDELHLDGEDVAMAHADALDDFDLDMLGDGDSPGPGFTPHDSAPYGALDMADFEFEQMFTDALGIDEYGG | binds | 
